Columns and labels:
[1] = molecular target: T1, human MCAM C320A mutant (shotgun mutagenesis library, on BHK cells) (human, UniProt P43121 24-646); assay: shotgun mutagenesis library, immunofluorescence on BHK cells, 0.5 µg/mL antibody
T1 chain: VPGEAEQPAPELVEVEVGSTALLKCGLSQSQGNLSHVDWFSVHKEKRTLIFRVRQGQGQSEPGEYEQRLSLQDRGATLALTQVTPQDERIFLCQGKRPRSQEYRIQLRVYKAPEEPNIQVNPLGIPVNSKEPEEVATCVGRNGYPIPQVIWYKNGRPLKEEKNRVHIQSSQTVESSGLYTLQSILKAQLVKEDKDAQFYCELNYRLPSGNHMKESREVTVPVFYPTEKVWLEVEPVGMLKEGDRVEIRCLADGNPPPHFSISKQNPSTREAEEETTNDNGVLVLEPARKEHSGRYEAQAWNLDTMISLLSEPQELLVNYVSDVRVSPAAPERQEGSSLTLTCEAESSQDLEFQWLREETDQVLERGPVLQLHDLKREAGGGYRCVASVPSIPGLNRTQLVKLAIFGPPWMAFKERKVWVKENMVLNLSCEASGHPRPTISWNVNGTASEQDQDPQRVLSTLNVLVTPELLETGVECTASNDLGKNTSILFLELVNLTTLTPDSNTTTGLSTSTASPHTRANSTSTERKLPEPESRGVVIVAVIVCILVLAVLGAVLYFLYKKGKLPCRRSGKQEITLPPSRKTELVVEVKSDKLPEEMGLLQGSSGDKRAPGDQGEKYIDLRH
Description: (§1) Secondary antibodies from Jackson ImmunoResearch were used at 1:400 for MAb and sera detection.
(§2) The mutation library was assayed for surface expression (mouse sera binding) and monoclonal antibody binding, in triplicate. Each raw data point was background-subtracted and normalized to the wild type MCAM reactivity values. The mean monoclonal antibody binding value for each clone is plotted as a function of its mean surface expression value (FIG. 1, gray diamonds). Thresholds of <30% monoclonal antibody reactivity and >50% mouse sera binding were applied to identify clones (FIG. 1, black diamonds) that were negative for monoclonal antibody binding but positive for surface expression.

[2] = molecular target: T2, human MCAM Y318A mutant (shotgun mutagenesis library, on BHK cells) (human, UniProt P43121 24-646); assay: as above
T2 chain: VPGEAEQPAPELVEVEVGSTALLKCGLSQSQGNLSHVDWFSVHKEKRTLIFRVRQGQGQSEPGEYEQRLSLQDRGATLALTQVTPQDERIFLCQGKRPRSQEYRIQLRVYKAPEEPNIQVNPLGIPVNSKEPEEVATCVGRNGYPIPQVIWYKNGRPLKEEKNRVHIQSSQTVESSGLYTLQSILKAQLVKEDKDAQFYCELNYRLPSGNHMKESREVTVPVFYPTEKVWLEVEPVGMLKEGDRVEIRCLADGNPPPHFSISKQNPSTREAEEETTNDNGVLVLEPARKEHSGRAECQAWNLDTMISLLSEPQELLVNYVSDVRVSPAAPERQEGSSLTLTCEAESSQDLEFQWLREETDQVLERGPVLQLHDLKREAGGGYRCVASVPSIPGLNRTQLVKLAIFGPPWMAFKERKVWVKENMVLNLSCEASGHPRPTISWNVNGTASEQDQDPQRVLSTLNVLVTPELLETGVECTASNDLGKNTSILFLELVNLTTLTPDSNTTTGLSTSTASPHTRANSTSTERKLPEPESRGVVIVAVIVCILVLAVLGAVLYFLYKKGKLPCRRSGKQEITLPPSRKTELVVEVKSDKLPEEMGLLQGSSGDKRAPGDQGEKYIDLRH
Description: as §1, §2

[3] = molecular target: T3, human MCAM C272A mutant (shotgun mutagenesis library, on BHK cells) (human, UniProt P43121 24-646); assay: as above
T3 chain: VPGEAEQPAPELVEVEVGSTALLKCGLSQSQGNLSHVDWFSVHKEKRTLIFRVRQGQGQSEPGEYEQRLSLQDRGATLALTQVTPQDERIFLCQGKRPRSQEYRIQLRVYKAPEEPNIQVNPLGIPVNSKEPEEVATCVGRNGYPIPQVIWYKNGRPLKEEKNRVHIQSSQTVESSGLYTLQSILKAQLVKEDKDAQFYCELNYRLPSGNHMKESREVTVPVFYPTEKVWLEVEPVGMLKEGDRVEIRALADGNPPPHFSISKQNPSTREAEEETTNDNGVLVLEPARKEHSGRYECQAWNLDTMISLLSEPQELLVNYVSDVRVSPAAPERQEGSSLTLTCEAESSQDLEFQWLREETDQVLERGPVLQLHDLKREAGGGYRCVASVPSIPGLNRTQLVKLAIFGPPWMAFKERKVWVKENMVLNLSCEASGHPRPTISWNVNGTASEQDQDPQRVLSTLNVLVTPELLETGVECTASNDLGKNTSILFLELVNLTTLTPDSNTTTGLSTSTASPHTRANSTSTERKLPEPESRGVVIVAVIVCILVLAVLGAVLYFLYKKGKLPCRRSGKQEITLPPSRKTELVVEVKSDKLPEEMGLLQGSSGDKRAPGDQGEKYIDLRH
Description: as §1, §2

[4] = molecular target: T4, human MCAM V340A mutant (shotgun mutagenesis library, on BHK cells) (human, UniProt P43121 24-646); assay: as above
T4 chain: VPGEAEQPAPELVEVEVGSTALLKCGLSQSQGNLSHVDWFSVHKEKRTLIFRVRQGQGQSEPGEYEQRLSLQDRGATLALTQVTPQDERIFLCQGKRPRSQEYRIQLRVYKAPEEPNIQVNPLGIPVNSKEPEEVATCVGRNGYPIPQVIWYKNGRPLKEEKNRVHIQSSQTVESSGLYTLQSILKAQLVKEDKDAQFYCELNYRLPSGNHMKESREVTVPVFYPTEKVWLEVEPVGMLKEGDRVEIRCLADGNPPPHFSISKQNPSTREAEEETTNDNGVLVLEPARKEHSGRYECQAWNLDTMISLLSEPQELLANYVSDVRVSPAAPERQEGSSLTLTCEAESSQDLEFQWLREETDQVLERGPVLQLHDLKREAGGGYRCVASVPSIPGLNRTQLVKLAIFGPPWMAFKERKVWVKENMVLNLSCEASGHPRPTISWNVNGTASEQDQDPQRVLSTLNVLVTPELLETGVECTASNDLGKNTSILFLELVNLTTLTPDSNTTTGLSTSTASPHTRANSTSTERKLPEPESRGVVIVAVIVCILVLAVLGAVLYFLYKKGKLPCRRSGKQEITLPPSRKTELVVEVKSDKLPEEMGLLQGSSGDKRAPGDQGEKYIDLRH
Description: as §1, §2

[5] = molecular target: T5, human MCAM Y318A single mutant displayed on mammalian cells (human, UniProt P43121 24-646); assay: FACS on mammalian cells displaying the mutant
T5 construct: also called Y318A mutant
T5 chain: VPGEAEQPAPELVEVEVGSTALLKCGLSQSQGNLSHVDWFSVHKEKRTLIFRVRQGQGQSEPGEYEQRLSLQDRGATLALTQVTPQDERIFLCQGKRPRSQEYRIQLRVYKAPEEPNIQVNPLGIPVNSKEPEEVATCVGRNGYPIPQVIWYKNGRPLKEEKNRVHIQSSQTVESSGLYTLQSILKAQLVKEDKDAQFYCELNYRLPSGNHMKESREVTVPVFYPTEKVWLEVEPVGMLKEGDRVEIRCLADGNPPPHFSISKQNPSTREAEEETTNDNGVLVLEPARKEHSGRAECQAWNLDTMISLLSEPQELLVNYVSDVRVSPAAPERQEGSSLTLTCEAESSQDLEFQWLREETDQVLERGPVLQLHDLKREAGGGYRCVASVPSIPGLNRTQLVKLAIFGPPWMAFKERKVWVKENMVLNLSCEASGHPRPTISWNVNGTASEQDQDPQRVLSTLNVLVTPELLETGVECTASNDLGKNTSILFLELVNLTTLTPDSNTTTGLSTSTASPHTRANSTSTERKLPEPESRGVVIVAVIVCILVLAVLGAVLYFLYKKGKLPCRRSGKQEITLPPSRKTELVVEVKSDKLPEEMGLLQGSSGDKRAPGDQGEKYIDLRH
Source text: Twenty point mutants based on the structure information and shotgun mutagenesis information were designed and generated.

- binding result [5]: no binding
B1: mouse anti-human MCAM monoclonal antibody clone 1749.1.3 (antibody, V domains shown)
VH: DVKLVESGGDLVKPGGSLKLSCAASGFTFSSYIMSWVRQTPEKRLEWVATISSGGSSTYYPDSVKGRFTISRDNAKNTLYLQMSSLKSEDTAMYYCTRDDDYDVKVFAYWGQGTLVTVSA
VL: DIVMSQSPSSLAVSAGEKVTMNCKSSRSLLNSRIRKNYLAWYQQKPGQSPKLLIYWASTRESGVPDRFTGSGSGTDFTLTISSVQAEDLAVYYCKQSYNLLTFGAGTKLELK
notes: Mouse hybridoma monoclonal antibody; also called m1749
- binding result [1]: no binding (tested: <30% WT)
- binding result [2]: no binding (tested: <30% WT)
- binding result [3]: no binding (tested: <30% WT)
- binding result [4]: no binding (tested: <30% WT)

From US20170129954A1 (PROTHENA BIOSCIENCES, published 2017)
